# Measurements reported in article PMC10646984 (Biomacromolecules, 2023).
# T1: Gal-8 (Homo sapiens, UniProt O00214)
# T1 construct: made in house; host or cells: Escherichia coli Rosetta 2(DE3)pLysS
# T1 sequence (O00214 1-317): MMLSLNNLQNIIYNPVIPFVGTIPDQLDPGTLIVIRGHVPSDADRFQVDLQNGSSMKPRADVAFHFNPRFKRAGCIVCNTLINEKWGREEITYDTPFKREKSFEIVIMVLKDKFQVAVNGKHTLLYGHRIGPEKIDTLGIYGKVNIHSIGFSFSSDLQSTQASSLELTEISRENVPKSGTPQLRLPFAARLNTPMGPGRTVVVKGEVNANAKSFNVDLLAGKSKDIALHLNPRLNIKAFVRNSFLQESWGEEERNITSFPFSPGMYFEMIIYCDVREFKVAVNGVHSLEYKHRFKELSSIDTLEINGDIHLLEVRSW
# T2: asialofetuin (ASF; a glycoprotein terminated with LacNAc moieties) (UniProt P12763 19-359, glycoprotein terminated with LacNAc moieties (desialylated glycans))
# T2 construct: asialofetuin, the desialylated form of fetuin
# T2 sequence (looked up): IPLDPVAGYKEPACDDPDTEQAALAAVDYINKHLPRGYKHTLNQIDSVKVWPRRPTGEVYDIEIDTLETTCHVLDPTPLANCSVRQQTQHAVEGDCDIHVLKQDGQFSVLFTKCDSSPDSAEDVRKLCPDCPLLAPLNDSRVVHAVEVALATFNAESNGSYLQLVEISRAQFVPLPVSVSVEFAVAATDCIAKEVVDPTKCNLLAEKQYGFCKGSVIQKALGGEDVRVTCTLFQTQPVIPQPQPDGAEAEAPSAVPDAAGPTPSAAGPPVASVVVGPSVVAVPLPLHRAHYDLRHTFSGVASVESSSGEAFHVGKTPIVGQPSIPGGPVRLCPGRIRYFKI
# B1: Recombinant human galectin-8 (Gal-8) with a full-length peptide linker of 34 aa, N-terminal His-tagged (natural protein, UniProt O00214 1-317, looked up)
# chain: T1 sequence (O00214 1-317)
# notes: galectin-8 (tandem repeat), human; contains a full-length peptide linker of 34 aa (3717 Da); ca. 36 kDa; cloned in pET-Duet1 (AscI/NotI); plasmid a gift from Prof; L. Elling; source: E. coli Rosetta 2(DE3)pLysS, purified (Ni-NTA); not shown: His tag, N-terminal, kept
# Experiments:
# Gal-8 [1] = biological target: T1, Gal-8; test: competitive ELISA with immobilized asialofetuin (ASF), Gal-8; type: binding; conditions: 1 μM Gal-8, immobilized ASF, DMSO co-solvent
# Experimental: (§1) The inhibitory potential of prepared Lac-CS-DDMs toward Gal-1, Gal-3, Gal-8, and Gal-9 was determined using a competitive ELISA assay with immobilized asialofetuin (ASF; a glycoprotein terminated with LacNAc moieties).[41] ASF (0.1 μM in PBS, 50 μL/well) was coated in microtiter plates (Nunc Immuno Sorb, Thermo Fisher Scientific, USA) and incubated overnight. Then, the wells were washed with 3 × 250 μL of PBS buffer containing 0.05% Tween; this washing step followed each incubation step. The wells were then blocked with 2 mg/mL BSA in PBS buffer (250 μL/well) and incubated for 1 h. […] The reaction was stopped by adding 3 M HCl (50 μL per well), accompanied by a color shift to yellow as determined spectrophotometrically by an absorbance microplate reader (Sunrise Tecan Group Ltd., CH). […] A background value, as a mean of the negative control wells containing buffer instead of galectin/ligand, with an absorbance of ca. 0.05–0.075 was subtracted from the measured absorbances. The values of half maximal inhibitory constants (IC50) were calculated from the non-linear regression (dose–response inhibition-variable slope) of the sigmoidal curves using GraphPad Prism 7 (GraphPad Software, USA) from at least three independent experiments with at least two different galectin batches. […]
# Gal-9 [2] = biological target: T3, Gal-9 (Homo sapiens, UniProt O00182, A222P/DEL149-219); test: competitive ELISA with immobilized asialofetuin (ASF), Gal-9; type: binding; conditions: 1 μM Gal-9, immobilized ASF, DMSO co-solvent
# T3 construct: made in house; host or cells: Escherichia coli Rosetta 2(DE3)pLysS
# Experimental: as §1
# Gal-1 = biological target: T4, Gal-1 (Homo sapiens, UniProt P09382, C3S); test: direct binding ELISA of galectin to immobilized ASF, Gal-1
# T4 construct: made in house; host or cells: Escherichia coli Rosetta 2(DE3)pLysS
# Gal-3 = biological target: T5, Gal-3 (Homo sapiens, UniProt P17931); test: direct binding ELISA of galectin to immobilized ASF, Gal-3
# T5 construct: made in house; host or cells: Escherichia coli Rosetta 2(DE3)pLysS
# Gal-8 [3] = biological target: T1, Gal-8; test: direct binding ELISA of galectin to immobilized ASF, Gal-8
# Gal-9 [4] = biological target: T3, Gal-9; test: direct binding ELISA of galectin to immobilized ASF, Gal-9
# [5] = DLS hydrodynamic diameter of single components (galectins, Lac-CS-DDMs); type: physicochemical; conditions: single component 10 μM in PBS, 25 °C
# Experimental: The hydrodynamic diameter of the nanoparticles of galectins, Lac-CS-DDMs, and their aggregates was measured by dynamic light scattering (DLS) using a Zetasizer Nano ZS (Malvern Instruments Ltd., UK) at 25 °C in Malvern disposable plastic microcuvettes (100 μL sample volume). The light scattered at 173° from the incident light was fitted to an autocorrelation function using the method of cumulants (Malvern Instruments Ltd., UK). Commercial sterile PBS was used for sample preparation. […] Mixtures of components were incubated for 90 min at room temperature. The samples were vortexed prior to measurements. The hydrodynamic diameters were determined from five independent repetitions (each 10–50 runs). Multimodal intensity-weighted particle size distribution was used for data analysis.
# DLS experiments on the A series of Lac-CS-DDMs and G3-B-AcLac32 were performed to provide insight into the complexity of multivalent galectin/Lac-CS-DDM interactions (Table 2). Unlike ELISA assays that simulate competitive binding on the cell surface, DLS is a straightforward method to evaluate non-surface bound multivalent assemblies.[71] Thus, it is interesting to relate the data obtained by these two methods. Since the transformation of intensity-weighted size distribution to volume-weighted size distribution requires information on the refractive index and absorption of the formed particles and assumes their homogeneity and spherical shape,[72] all presented data come from the analysis of the multimodal intensity-weighted size distribution. As the scattering intensity correlates with the particle diameter to the sixth power, whereas the mass only to the third power, the abundance of larger particles is overestimated at the expense of the smaller ones with respect to the real sample composition, especially in the case of polydisperse samples with multiple size populations.[73] This means that, due to the presence of large aggregates, the particles smaller by orders of magnitude present in the sample may not be detected. Despite the above bottlenecks, we believe that using the size-to-intensity plot is the most appropriate as it is highly sensitive to a starting aggregation, which may be undetectable in the size-to-volume distribution, and it is well suited to compare results between different galectins and Lac-CS-DDM generations to address general differences and trends in their aggregation behavior.
# [6] = biological target: asialofetuin (ASF; a glycoprotein terminated with LacNAc moieties) (UniProt P12763); test: ELISA; direct binding: ASF (0.1 μM in PBS) coated on the plate, serial dilution of the galectin in EPBS (2 mM EDTA in PBS), bound galectin detected with anti-His antibody-HRP
# [7] = biological target: T2, asialofetuin (ASF; a glycoprotein …); test: as above; conditions: both partners purified
# T3 sequence (O00182 with tags, fused parts or gaps DEL149-219/A222P): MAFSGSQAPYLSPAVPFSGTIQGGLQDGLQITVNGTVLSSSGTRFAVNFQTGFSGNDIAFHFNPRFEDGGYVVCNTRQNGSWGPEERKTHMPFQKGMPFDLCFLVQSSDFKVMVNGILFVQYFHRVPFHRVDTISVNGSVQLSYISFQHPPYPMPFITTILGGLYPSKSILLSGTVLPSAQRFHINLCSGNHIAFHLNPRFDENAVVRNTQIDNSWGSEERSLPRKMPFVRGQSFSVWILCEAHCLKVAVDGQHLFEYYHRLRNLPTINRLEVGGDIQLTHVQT
# T5 sequence (P17931 whole entry): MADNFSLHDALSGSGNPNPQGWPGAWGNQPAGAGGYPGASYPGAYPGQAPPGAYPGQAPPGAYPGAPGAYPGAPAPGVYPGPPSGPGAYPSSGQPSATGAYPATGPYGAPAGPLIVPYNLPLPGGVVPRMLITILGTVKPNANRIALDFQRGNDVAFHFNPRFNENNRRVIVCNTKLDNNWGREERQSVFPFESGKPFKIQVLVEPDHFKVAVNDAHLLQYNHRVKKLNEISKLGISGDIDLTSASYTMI
# T4 sequence (P09382 whole entry C3S): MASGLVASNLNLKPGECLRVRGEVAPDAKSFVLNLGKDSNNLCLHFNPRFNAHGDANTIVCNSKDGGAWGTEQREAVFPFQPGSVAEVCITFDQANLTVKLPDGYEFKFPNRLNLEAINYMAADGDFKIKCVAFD
Molecule,PI (polydispersity index) [5],"hydrodynamic diameter, aggregates >0.5 μm [5] [μm]","hydrodynamic diameter, small particles <50 nm (first fraction) [5] [nm]","intensity-weighted abundance, aggregates >0.5 μm [5] [%]","intensity-weighted abundance, small particles <50 nm (first fraction) [5] [%]",other results
OC[C@H]1O[C@@H](O[C@H]2[C@H](O)[C@@H](O)C(O)O[C@@H]2CO)[C@H](O)[C@@H](O)[C@H]1O (mixture of isomers) [lactose],,,,,,IC50 (Gal-8 [1]): 1680 ± 420 µM; IC50 (Gal-9 [2]): 1350 ± 440 µM
"ASF: asialofetuin, a glycoprotein terminated with LacNAc moieties, immobilized competitor in ELISA",,,,,,Kd (Gal-1): 4.4 µM; Kd (Gal-3): 3.2 µM; Kd (Gal-8 [3]): 0.37 µM; Kd (Gal-9 [4]): 0.3 µM
"Gal-1: recombinant human galectin-1, N-terminal His-tagged, C2S mutation",0.4,1.2 ± 0.5,1.3 ± 0.1,32,47,"hydrodynamic diameter, small particles <50 nm (second fraction) [5]: 19.0 ± 6.0 nm; intensity-weighted abundance, small particles <50 nm (second fraction) [5]: 21%"
"Gal-3: recombinant human galectin-3, N-terminal His-tagged",0.6,1.1 ± 0.1,7.9 ± 1.4,13,36,"hydrodynamic diameter, aggregates >0.1 μm [5]: 0.4 ± 0.1 μm; intensity-weighted abundance, aggregates >0.1 μm [5]: 40%"
"Gal-8: recombinant human galectin-8, N-terminal His-tagged, full-length peptide linker of 34 aa",0.7,1.4 ± 0.3,5.4 ± 0.5,80,20,
"Recombinant human galectin-1 (Gal-1) with mutation C2S, N-terminal His-tagged (natural protein)",,,,,,Kd [6]: 4.4 µM
"Recombinant human galectin-9 (Gal-9) with a truncated mutated peptide linker HPPYPMPF, N-terminal His-tagged (natural protein)",,,,,,Kd [6]: 0.3 µM
B1,,,,,,Kd [7]: 0.37 µM
